{"source": "paper PMC9499402", "about": "“Crystal Structure of an Archaeal Tyrosyl-tRNA Synthetase Bound to Photocaged L-Tyrosine and Its Potential Application to Time-Resolved X-ray Crystallography” (International Journal of Molecular Sciences, 2022)", "biological_target": "the molecule itself", "assay": "crystal structure; oNBTyrRS (10 mg/mL) co-crystallised with oNBTyr (1.4 mg/mL), sitting-drop vapor diffusion at 20 °C; reservoir 20% PEG300, 3% PEG8000, 10% glycerol, 100 mM Tris-HCl pH 8.0; dimer in the asymmetric unit; 2.79 Å", "data": [{"protein": "oNBTyrRS, O-(2-nitrobenzyl)-L-tyrosine-specific variant of Methanocaldococcus jannaschii tyrosyl-tRNA synthetase (Y32G, L65G, F108E, D158S, L162E, D286R) (enzyme, UniProt Q57834 1-306, looked up, Methanocaldococcus jannaschii tyrosyl-tRNA synthetase (MjTyrRS), UniProt Q57834, with six substitutions; all 306 amino acid residues were modelled in the crystal structure; Residues of the TEV site may remain after cleavage; also called oNBTyr-tRNA synthetase; M. jannaschii oNBTyrRS; source: E. coli Rosetta2 (DE3), purified (HisTrap, TEV cleavage, HisTrap flow-through, desalting, HiTrap Q); not …) MDEFEMIKRNTSEIISEEELREVLKKDEKSAGIGFEPSGKIHLGHYLQIKKMIDLQNAGFDIIIGLADLHAYLNQKGELDEIRKIGDYNKKVFEAMGLKAKYVYGSEEQLDKDYTLNVYRLALKTTLKRARRSMELIAREDENPKVAEVIYPIMQVNSIHYEGVDVAVGGMEQRKIHMLARELLPKKVVCIHNPVLTGLDGEGKMSSSKGNFIAVDDSPEEIRAKIKKAYCPAGVVEGNPIMEIAKYFLEYPLTIKRPEKFGGDLTVNSYEELESLFKNKELHPMRLKNAVAEELIKILEPIRKRL", "values": [{"measurement": "stoichiometry N", "value": 2}]}]}
